Data as given in the DeepSol protein solubility set.

assay: soluble on expression in E. coli; label from the status in PepcDB or PDB records

| Sequence | soluble on expression in E. coli |
| --- | --- |
| MDICSRNKKLTIRRPAILVALALLLCSCKSTPPESMVTPPAGSKPPATTQQSSQPMRGIWLATVSRLDWPPVSSVNISNPTSRARVQQQAMIDKLDHLQRLGINTVFFQVKPDGTALWPSKILPWSDLMTGKIGENPGYDPLQFMLDEAHKRGMKVHAWFNPYRVSVNTKPGTIRELNSTLSQQPASVYVQHRDWIRTSGDRFVLDPGIPEVQDWITSIVAEVVSRYPVDGVQFDDYFYTESPGSRLNDNETYRKYGGAFASKADWRRNNTQQLIAKVSHTIKSIKPGVEFGVSPAGVWRNRSHDPLGSDTRGAAAYDESYADTRRWVEQGLLDYIAPQIYWPFSRSAARYDVLAKWWADVVKPTRTRLYIGIAFYKVGEPSKIEPDWMINGGVPELKKQLDLNDAVPEISGTILFREDYLNKPQTQQAVSYLQSRWGS | soluble |
| MDIPQDSYDLVVVGGGTSGVFAAISAARRGLRVALVEASGMLGGTLTQVTLGGICGAWTGTAHTQVVHGLFDEFVHAMRKAQACDGLYSYGHVTALPYEPVKVRYLLDQLLPPNVTTFFHSRLFAVDMEGERIARVHLAGVEGPFSLAARAYVDATGNASLAGLCATPLRRGENGTVQAASSMFRVIGADVDPRVRDVRTEIRLAIEKHNASGQAEAFKRSAVAVYVHPDQRLLHFNATRVYFESTADDALAAALDMSRVETEARKEAFRLVELLKREVDGFANIEIVDLGSSVGVRDSRNIVNDHPLTEAMVRDGDKPANSVAYSAWPIEFHGSNTQTHWEPLEGDRYYGIPYESCLPQGIQNALVIGRAISSTPLAQASCRVTAPCIQMGESAGIAAHELVASSSRTAFSELASMKFILEHHHHHH | not soluble |
| MDITEKLRLITRNAEEVVTEEELRQLIETKEKPRAYVGYEPSGEIHLGHMMTVQKLMDLQEAGFEIIVLLADIHAYLNEKGTFEEIAEVADYNKKVFIALGLDESRAKFVLGSEYQLSRDYVLDVLKMARITTLNRARRSMDEVSRRKEDPMVSQMIYPLMQALDIAHLGVDLAVGGIDQRKIHMLARENLPRLGYSSPVCLHTPILVGLDGQKMSSSKGNYISVRDPPEEVERKIRKAYCPAGVVEENPILDIAKYHILPRFGKIVVERDAKFGGDVEYASFEELAEDFKSGQLHPLDLKIAVAKYLNMLLEDARKRLGVSV | soluble |
| MDIWVNLLSDRLESPNFEFITDFIGGKCVVQKDYLEDEKSQSSSGWLLHVYFRPEEFLDRPFVADIIFRCGTRRREVFSVLLKNDCFFAHMRVKEKTGRLIIAARIRKMLCELDLSKPSGSRQFVVQNFENQLKDGRIFYVNLAKLGQIGGDLFKKWQTVENVQQLSLANETMENRMIEVLMEATAKYDDIVVIRHSFHRLIQLAQTYRMHKLMRVIEENLSETKLMNWDEKILLALQYRMSQLYVQVQRKYLLTPWNILCRIQRLYLSNYAAKSGNASNPYDMIHKNLMQMVMMSDENICIG | not soluble |
| MDKDCEMKRTTLDSPLGKLELSGCEQGLHEIKLLGKGTSAADAVEVPAPAAVLGGPEPLMQCTAWLNAYFHQPEAIEEFPVPALHHPVFQQESFTRQVLWKLLKVVKFGEVISYQQLAALAGNPKAARAVGGAMRGNPVPILIPCHRVVCSSGAVGNYSGGLAVKEWLLAHEGHRLGKPGLGGSSGLAGAWLKGAGATSGSPPAGRN | soluble |
| MDKIVIKGGNKLTGEVKVEGAKNAVLPILTASLLASDKPSKLVNVPALSDVETINNVLTTLNADVTYKKDENAVVVDATKTLNEEAPYEYVSKMRASILVMGPLLARLGHAIVALPGGCAIGSRPIEQHIKGFEALGAEIHLENGNIYANAKDGLKGTSIHLDFPSVGATQNIIMAASLAKGKTLIENAAKEPEIVDLANYINEMGGRITGAGTDTITINGVESLHGVEHAIIPDRIEAGTLLIAGAITRGDIFVRGAIKEHMASLVYKLEEMGVELDYQEDGIRVRAEGELQPVDIKTLPHPGFPTDMQSQMMALLLTANGHKVVTETVFENRFMHVAEFKRMNANINVEGRSAKLEGKSQLQGAQVKATDLRAAAALILAGLVADGKTSVTELTHLDRGYVDLHGKLKQLGADIERIND | not soluble |
